Consider twelve molecules from paper PMC5993284, “Peptide inhibitors of the anaphase promoting-complex that cause sensitivity to microtubule poison” (PLoS ONE, 2018).

As usually defined, the IC50 is the point on the concentration scale where inhibition reaches its midpoint. For orientation: Hill coefficient means the slope factor of the fitted curve.

In this test the target is T1, APC/C^Cdc20 (Saccharomyces cerevisiae, UniProt P16522+P53886).
T1 construct: constructed within full-length Cdc20 by site-directed mutagenesis for analysis in vitro in the APC/C^Cdc20 assay; The APC/C was purified for enzyme assays from 1 mL of TAP-tagged Cdc16 yeast extract (SCSY51); made in house; host or cells: Cdc20: in vitro transcription/translation in rabbit reticulocyte lysate, used unpurified; APC/C: S. cerevisiae strain SCSY51 (Cdc16-TAP) extract, captured on IgG magnetic beads
The test is described as follows: biochemical. The test is classed as biochemical. To be noted: for inhibition of APC/C^Cdc20 activity (in words): 220 μM peptide, time course 0-60 minutes, vs buffer only, n = 3; for ubiquitinated Pds1 species at 60 minutes (in words): inhibitor at about 4-times the IC50, S2 Fig C. The method, then: Full-length, radio-labeled protein purifications were preformed as previously described. ^35S-Pds1 was prepared in a 500 μL IVT/T (In Vitro Transcription/Translation) reaction (Promega, USA), which contained 400 μL rabbit reticulocyte lysate, 20 μL of L-^35S-methionine (PerkinElmer, USA), 10 μg of plasmid DNA, and the remaining volume as nuclease-free ddH2O as recommended by the manufacturer. The reaction mixture was incubated for 2 hours at room temperature and gently mixed every 30 minutes. The reaction was added to pre-equilibrated IgG Sepharose beads (GE Healthcare, USA) in Bio-spin disposable chromatography columns (Bio-Rad, USA) for binding for 2 hours at room temperature. To ensure efficient binding, the beads were re-suspended several times every 30 minutes. After binding, the beads were washed with 5 mL wash buffer, containing 200 mM 4-(2-hydroxyethyl)-1-piperazineethanesulfonic acid (HEPES) at pH 8.0, 150 mM NaCl, 10% (v/v) glycerol, and 1 mM dithiothreitol (DTT). The ^35S-Pds1 was cleaved from the beads using TEV (Tobacco Etch Virus) protease in 1x TEV buffer (Invitrogen, USA) for 2 hours at room temperature, and the mixture was re-suspended several times every 30 minutes to promote efficient cleavage. The elution was collected and concentrated by employing an Amicon Ultra filter column (Millipore, Ireland). The concentrated ^35S-Pds1 was collected in a new tube, and stored at -20 °C.
The production of Cdc20 or Cdh1 was prepared by IVT/T reactions, where 16 μL of rabbit reticulocyte lysate, 20 μM L-methionine, 0.4 μg of plasmid DNA, and a volume of nuclease-free ddH2O for a total volume of 20 μL. This freshly synthesized Cdc20 or Cdh1 protein was used directly in all APC/C assays after a 1-hour synthesis reaction at room temperature. The APC/C was purified for enzyme assays from 1 mL of TAP-tagged Cdc16 yeast extract (SCSY51) where extract was mixed with 50 μL 50:50 slurry magnetic beads (Invitrogen, Norway) for 2 hours at 4 °C. After incubation, the beads were washed with 3 mL APC/C wash buffer (200 mM of HEPES, 150 mM of NaCl and 10% (v/v) of glycerol). APC/C bound to IgG magnetic beads was used directly in the enzyme assays.
APC/C assays were performed by adding the reaction contents in following order: 4.3 μL of QAH buffer, 20 μL of rabbit reticulocyte lysate containing Cdc20 or Cdh1 with or without an additional volume of recombinant checkpoint protein(s) or inhibitor peptides, 2.4 μL ubiquitin aldehyde (Boston Biochem, USA), APC/C, 16 μL pre-charged E1/E2/ATP/ubiquitin mix, and 13.3 μL of ^35S-Pds1 with QAH buffer (20 mM HEPES at pH 8.0, 100 mM NaCl, and 1 mM MgCl2). The E1/E2/ATP/ubiquitin mix were pre-charged by mixing 1 μL of E1 (Boston Biochem, USA), 1 μL of E2 (Boston Biochem, USA), 14.4 μL of ATP, 14.4 μL of […] (Boston Biochem, USA), and 17.2 μL of QAH buffer and incubated for 15 minutes at room temperature. Approximately 15 μL of samples were taken out at each time point, and the reaction was stopped by the addition of 2x protein sample buffer (125 mM Tris-HCl pH 6.8, 4% SDS, 20% glycerol, and 0.002% bromophenol blue, with 10% (final v/v) 2-mercaptoethanol added in fresh directly before use).
For inhibitor titration and time-course experiments, recombinant Bub3, Mad2, Mad3, and the Mad3-Bub3 complex were expressed and purified as previously described. […] For inhibition of APC/C the co-factor Cdc20 or Cdh1 was made fresh by IVT/T, and pure recombinant checkpoint proteins or inhibitor peptides were added to the IVT/T mixture and incubated for an additional hour at room temperature. In titrations, a dilution series of the checkpoint protein(s) were made before incubation with the Cdc20 co-factor. SDS-PAGE was performed using stand protocols (BioRad, USA).

Where [1] appears, read: MCC subunits, 4-parameter Hill fit, ± sd.
The mark [2] stands for this setting: MCC subunits, titration, 4-parameter Hill fit, ± sd from three independent titrations, 35S-Pds1 substrate, read-out: IC50.
The mark [3] stands for this setting: Mad3-Bub3 complex in the presence of 0.5 μM Mad2, ± sd, three independent titrations, read-out: IC50.

Where “and” joins values, the source holds several entries; their conditions need not be identical. Equal values may be shown once. Read-outs that look alike come from different tables or passages of the source. Ends that are not written are not given here.

With “PL29: PL29 (Cdc20 167–196) that does not contain the KILR-motif (LPPPNASPISHLRAQTKIVFKQNVAEACGL; UniProt P26309 167-196, looked up, fragment)”, where the note is “35S-Pds1 substrate”, the “inhibition of APC/C^Cdc20 activity (in words)” value (“inhibition” for short) is on record as “displayed the ability to inhibit APC/C^Cdc20 activity”.
For the molecule “MKVLDDWFSRKFSKAVHGNNHGTISLSTLSYIRVHKLVK [Tyc1]”, the IC50 was ~50000 nM.
Regarding “AV16: C-box containing peptide AV16 (Cdc20 143–158) (ADRYIPILQGASQNKV; UniProt P26309 143-158, looked up, fragment)”, the “inhibition” value (35S-Pds1 substrate) is “A significant level of APC/C^Cdc20 inhibition was observed only in the presence of the C-box2 peptide”.
With “DMNKRILQYMPEPPKCSSLRQKSYIMKKRTHYSYQQ [DQ36]”, the IC50 was ~150000 nM. For the same molecule, the “IC50 weaker than that of PQ65 (times)” value (ratio of IC50 relative to PQ65) is “about 3 times”.
In the case of “DS17: DS17 (Cdc20 197–212) peptide derived from the N-terminal portion of the DQ36 peptide (DMNKRILQYMPEPPKC; UniProt P26309 197-212, looked up, fragment)”, for the setting “35S-Pds1 substrate”, the “inhibition” value was “no significant inhibition was observed”.
On to “C-box1: C-box containing peptide C-box1 (130–167) (TTSREVDEQFTVAADRYIPILQGASQNKVDPETLHEAL; UniProt P26309 130-167, looked up, fragment)”, for which the “inhibition” value (35S-Pds1 substrate) is “A significant level of APC/C^Cdc20 inhibition was observed only in the presence of the C-box2 peptide”.
On to “EV25: C-box containing peptide EV25 (Cdc20 134–158) (EVDEQFTVAADRYIPILQGASQNKV; UniProt P26309 134-158, looked up, fragment)”, for which the “inhibition” value (35S-Pds1 substrate) is listed as “A significant level of APC/C^Cdc20 inhibition was observed only in the presence of the C-box2 peptide”.

B1: Mad2: pure recombinant MCC component Mad2 (protein)
chain: MSQSISLKGSTRTVTEFFEYSINSILYQRGVYPAEDFVTVKKYDLTLLKTHDDELKDYIRKILLQVHRWLLGGKCNQLVLCIVDKDEGEVVERWSFNVQHISGNSNGQDDVVDLNTTQSQIRALIRQITSSVTFLPELTKEGGYTFTVLAYTDADAKVPLEWADSNSKEIPDGEVVQFKTFSTNDHKVGAQVSYKY
Take B1: the “ubiquitinated Pds1 species at 60 minutes (in words)” value is reported as “the small amount of Pds1 that is ubiquitinated appears to be fully poly-ubiquitinated”. The “inhibition” value (35S-Pds1 substrate) is “yields a high level of inhibition”. Further, the Hill coefficient under setting [1] was 2.4 ± 0.3 and 2.4. The IC50 under setting [2] was 2300 ± 500 nM.

B2: Mad3-Bub3 complex + 0.5 μM Mad2: Mad3-Bub3 complex in the presence of 0.5 μM Mad2 (protein)
chain 1: MKAYAKKRISYMPSSPSQNVINFEEIETQKENILPLKEGRSAAALSKAIHQPLVEINQVKSSFEQRLIDELPALSDPITLYLEYIKWLNNAYPQGGNSKQSGMLTLLERCLSHLKDLERYRNDVRFLKIWFWYIELFTRNSFMESRDIFMYMLRNGIGSELASFYEEFTNLLIQKEKFQYAVKILQLGIKNKARPNKVLEDRLNHLLRELGENNIQLGNEISMDSLESTVLGKTRSEFVNRLELANQNGTSSDVNLTKNNVFVDGEESDVELFETPNRGVYRDGWENFDLKAERNKENNLRISLLEANTNLGELKQHEMLSQKKRPYDEKLPIFRDSIGRSDPVYQMINTKDQKPEKIDCNFKLIYCEDEESKGGRLEFSLEEVLAISRNVYKRVRTNRKHPREANLGQEESANQKEAEAQSKRPKISRKALVSKSLTPSNQGRMFSGEEYINCPMTPKGRSTETSDIISAVKPRQLTPILEMRESNSFSQSKNSEIISDDDKSSSSFISYPPQR
chain 2: MQIVQIEQAPKDYISDIKIIPSKSLLLITSWDGSLTVYKFDIQAKNVDLLQSLRYKHPLLCCNFIDNTDLQIYVGTVQGEILKVDLIGSPSFQALTNNEANLGICRICKYGDDKLIAASWDGLIEVIDPRNYGDGVIAVKNLNSNNTKVKNKIFTMDTNSSRLIVGMNNSQVQWFRLPLCEDDNGTIEESGLKYQIRDVALLPKEQEGYACSSIDGRVAVEFFDDQGDDYNSSKRFAFRCHRLNLKDTNLAYPVNSIEFSPRHKFLYTAGSDGIISCWNLQTRKKIKNFAKFNEDSVVKIACSDNILCLATSDDTFKTNAAIDQTIELNASSIYIIFDYEN
chain 3: B1 chain
modifications: Mad2 added separately at 0.5 uM
Turning to B2, the IC50 under setting [3] came to 70 ± 3 nM.

B3: Mad3: pure recombinant MCC component Mad3 (protein, UniProt P47074 1-515, looked up)
Spindle assembly checkpoint …: B2 chain 1
B3: the Hill coefficient under setting [1] is 5.0 ± 0.9 and 5.0. For the same molecule, the IC50 under setting [2] was determined as 240 ± 10 nM.

B4: Bub3: pure recombinant MCC component Bub3 (protein, UniProt P26449 1-341, looked up)
Spindle assembly checkpoint …: B2 chain 2
B4: the Hill coefficient under setting [1] is 2.2 ± 0.4 and 2.2. For the same molecule, the IC50 under setting [2] was 8700 ± 2400 nM.

B5: Mad3-Bub3 complex: recombinant Mad3-Bub3 complex (protein, UniProt P47074 1-515; P26449 1-341, looked up)
Spindle assembly checkpoint … 1: B2 chain 1
Spindle assembly checkpoint … 2: B2 chain 2
For B5, the “ubiquitinated Pds1 species at 60 minutes (in words)” value is listed as “the Pds1 accumulated in these lower molecular weight species”. Besides, under setting [1], the Hill coefficient turned out to be 7.3 ± 2.6. Besides, the Hill coefficient (MCC subunits, 4-parameter Hill fit, ± sd, listed as Mad3-Bub3) came to 7.3. Moreover, under setting [2], the IC50 was found to be 89 ± 4 nM. Also, the Hill coefficient (Mad3-Bub3 complex in the presence of 0.5 μM Mad2, ± sd) was found to be 8.2 ±1.9. Also, under setting [3], the IC50 was 70 ± 3 nM.
